In assay [1] the target is T1, human GnRH receptor (human, UniProt P30968 1-328).
T1 construct: whole, on cells; Endogenous receptor; also called LHRH receptor; human pituitary GnRH receptor
T1 sequence (looked up): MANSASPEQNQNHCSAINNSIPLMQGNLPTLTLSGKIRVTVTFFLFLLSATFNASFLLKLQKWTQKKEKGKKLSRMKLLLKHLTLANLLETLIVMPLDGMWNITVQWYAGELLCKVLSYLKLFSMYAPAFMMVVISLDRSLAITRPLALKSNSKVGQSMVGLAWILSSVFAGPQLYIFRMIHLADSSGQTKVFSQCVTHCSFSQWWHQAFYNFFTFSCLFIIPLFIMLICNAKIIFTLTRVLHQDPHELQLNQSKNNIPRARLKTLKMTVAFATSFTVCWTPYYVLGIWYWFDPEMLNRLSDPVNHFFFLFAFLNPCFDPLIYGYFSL
Put plainly: cell-based or functional assay.

In assay [2] the target is T1, human GnRH receptor. Put plainly: radioligand displacement curves on ME15392 melanoma cell membranes. A general note: In a radioligand displacement assay an active substance lowers the binding of a labelled ligand.
Assay [3] addresses T2, rat pituitary GnRH receptor (rat, UniProt P30969 1-327).
T2 construct: whole, on cells; also called Rat pituitaries
T2 sequence (looked up): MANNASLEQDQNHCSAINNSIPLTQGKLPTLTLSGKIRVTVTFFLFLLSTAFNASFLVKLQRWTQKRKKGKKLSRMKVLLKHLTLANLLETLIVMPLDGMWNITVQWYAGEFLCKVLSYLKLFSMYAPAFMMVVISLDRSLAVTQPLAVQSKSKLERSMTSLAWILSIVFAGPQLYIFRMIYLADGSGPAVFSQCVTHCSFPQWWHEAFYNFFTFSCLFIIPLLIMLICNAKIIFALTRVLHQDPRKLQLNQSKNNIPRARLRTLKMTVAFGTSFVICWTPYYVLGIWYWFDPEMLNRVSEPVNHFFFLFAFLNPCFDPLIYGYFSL
Put plainly: radioligand displacement curves on rat pituitary membranes (control).

Assay [4] deals with T1, human GnRH receptor. Put plainly: radioligand displacement curves on BLM melanoma cell membranes.

*1 amine or outer side, *2 acyl side, *3 side chain or, on linkers, in order; H or OH if unused. [ ]: non-standard residue; d: D form. dSer(tBu) = CC(C)(C)OC[C@@H](N[*:1])C(=O)[*:2]; pGlu = O=C1CC[C@@H](C(=O)O)N1; azaGly = NNC(=O)O

Broadly, the Kd is the constant that tells how readily two partners part at equilibrium. A higher Kd goes with weaker binding.

As to “Antide (LHRH antagonist, Sigma Chemical Co., No. A8802) (peptide)”, in the assay with human GnRH receptor [1], the inhibition of proliferation of MV3 melanoma cells at 10^-4 M worked out at 15%, the inhibition of proliferation of MV3 melanoma cells at 10^-5 M came to 35% and the stimulation of growth of MV3 melanoma cells at 10^-6 M was 40%.
In the assay with human GnRH receptor [1], Cetrorelix (GnRH antagonist) (peptide) registered a decrease of proliferation of U-87MG cells at 10^-6 M of 28% and an inhibition of proliferation of U-87MG cells at 10^-5 M of 30%.
Turning to “Triptorelin (LHRH agonist, Sigma Chemical Co., No. L9761) (peptide)”, in the assay with human GnRH receptor [1], the inhibition of proliferation of MV3 melanoma cells from day 4 on (10^-4, 10^-5, 10^-6 M) turned out to be 15%.

B1: GnRH agonist LHRH-A (ZOLADEX, [D-Ser(tBu)^6Aza-Gly-LHRH]) (peptide)
peptide: [pGlu]HWSY[dSer(tBu)]LRP[azaGly]-NH2
modifications: also: ^125I-labelled form used as tracer in binding assay
notes: also called Goserelin
For the molecule B1, the figures for the Kd (with human GnRH receptor [2]; in assay [3]; in the assay with human GnRH receptor [4]) were 0.1 to 0.6 nM, 1.5 to 2 nM and 0.7 to 1.1 nM, respectively.

Values taken from patent publication US20100190692A1 (published 2010).
